The text below walks through data of article PMC10397247.

The target of one assay is T1, 4H3297-bA.
T1 chain: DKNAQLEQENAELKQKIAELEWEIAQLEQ
Kind of assay: two-hybrid library CCNG1.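 Also: natural log of median RNA to DNA barcode read ratio; higher means stronger binding.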

In a further assay the target is T2, 4H56-bA.
T2 chain: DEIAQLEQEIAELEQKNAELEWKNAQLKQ
Kind of assay: two-hybrid library CCNG1.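 Also: natural log of median RNA to DNA barcode read ratio; higher means stronger binding.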

Another assay has as its target T3, 4H932-bA.
T3 chain: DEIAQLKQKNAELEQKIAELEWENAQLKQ
Kind of assay: two-hybrid library CCNG1.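 Also: natural log of median RNA to DNA barcode read ratio; higher means stronger binding.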

The next assay deals with T4, 4H796-bA.
T4 chain: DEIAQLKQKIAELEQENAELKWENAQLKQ
Description: two-hybrid library CCNG1.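 Also: natural log of median RNA to DNA barcode read ratio; higher means stronger binding.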

In another assay the target is T5, 4H3381-bA.
T5 chain: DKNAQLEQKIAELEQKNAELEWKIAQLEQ
Description: two-hybrid library CCNG1.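 Also: natural log of median RNA to DNA barcode read ratio; higher means stronger binding.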

The next assay addresses T6, 4H3364-bA.
T6 chain: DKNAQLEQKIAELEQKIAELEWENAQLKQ
Description: two-hybrid library CCNG1.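 Also: natural log of median RNA to DNA barcode read ratio; higher means stronger binding.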

In a further assay the target is T7, 4H2859-bA.
T7 chain: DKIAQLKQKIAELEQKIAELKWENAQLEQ
Kind of assay: two-hybrid library CCNG1.

In a further assay the target is T8, 4H2931-bA.
T8 chain: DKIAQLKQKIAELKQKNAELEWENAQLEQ
Description: two-hybrid library CCNG1.

In a further assay the target is T9, 4H730-bA.
T9 chain: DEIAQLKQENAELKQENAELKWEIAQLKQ
Kind of assay: two-hybrid library CCNG1.

The next assay concerns the target T10, 4H349-bA.
T10 chain: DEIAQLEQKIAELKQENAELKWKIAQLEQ
Kind of assay: two-hybrid library CCNG1.

For a further assay, the target named is T11, 4H949-bA.
T11 chain: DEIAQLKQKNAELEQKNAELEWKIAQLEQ
Description: two-hybrid library CCNG1.

Another assay concerns the target T12, 4H3041-bA.
T12 chain: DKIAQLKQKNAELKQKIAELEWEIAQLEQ
Description: two-hybrid library CCNG1.

The next assay deals with T13, 4H3718-AA.
T13 chain: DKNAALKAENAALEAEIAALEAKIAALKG
Description: two-hybrid library CCmax. Particulars: mean of both orientations.

The target in the next assay is T14, 4H3056-AA.
T14 chain: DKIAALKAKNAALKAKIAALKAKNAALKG
Description: two-hybrid library CCmax. Particulars: mean of both orientations.

Another assay has as its target T15, 4H3606-AA.
T15 chain: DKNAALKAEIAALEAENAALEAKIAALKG
Description: two-hybrid library CCmax. Conditions: mean of both orientations.

A further assay addresses T16, 4H384-AA.
T16 chain: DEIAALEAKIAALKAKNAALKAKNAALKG
Description: two-hybrid library CCmax. Conditions: mean of both orientations.

The target of the next assay is T17, 4H3413-AA.
T17 chain: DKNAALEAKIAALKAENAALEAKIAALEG
Description: two-hybrid library CCmax. Conditions: mean of both orientations.

The target in the next assay is T18, 4H3378-AA.
T18 chain: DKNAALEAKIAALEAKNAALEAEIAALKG
Description: two-hybrid library CCmax. Conditions: mean of both orientations.

Another assay concerns the target T19, 4H1874-AA.
T19 chain: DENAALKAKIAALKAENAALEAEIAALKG
Description: two-hybrid library CCmax.

A further assay deals with T20, 4H982-AA.
T20 chain: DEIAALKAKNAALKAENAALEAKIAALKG
Kind of assay: two-hybrid library CCmax. Conditions: mean of both orientations.

The target in the next assay is T21, 4H2553-AA.
T21 chain: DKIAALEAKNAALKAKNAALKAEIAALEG
Kind of assay: two-hybrid library CCmax. Conditions: mean of both orientations.

The target of another assay is T22, 4H697-AA.
T22 chain: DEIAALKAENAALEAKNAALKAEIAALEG
Kind of assay: two-hybrid library CCmax. Conditions: mean of both orientations.

Another assay has as its target T23, 4H340-AA.
T23 chain: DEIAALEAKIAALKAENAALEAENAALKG
Kind of assay: two-hybrid library CCmax. Particulars: mean of both orientations.

Another assay concerns the target T24, 4H3162-AA.
T24 chain: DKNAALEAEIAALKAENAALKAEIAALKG
Description: two-hybrid library CCmax. Conditions: mean of both orientations.

The next assay deals with T25, 4H3588-AA.
T25 chain: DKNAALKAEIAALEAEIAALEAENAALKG
Description: two-hybrid library CCmax. Conditions: mean of both orientations.

The next assay has as its target T26, 4H3865-AA.
T26 chain: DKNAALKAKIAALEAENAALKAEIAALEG
Description: two-hybrid library CCmax. Particulars: mean of both orientations.

A further assay deals with T27, 4H2611-AA.
T27 chain: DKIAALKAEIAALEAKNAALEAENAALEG
Description: two-hybrid library CCmax. Particulars: mean of both orientations.

Another assay deals with T28, 4H3631-AA.
T28 chain: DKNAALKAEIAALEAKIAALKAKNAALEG
Kind of assay: two-hybrid library CCmax. Conditions: mean of both orientations.

The target in another assay is T29, 4H2907-AA.
T29 chain: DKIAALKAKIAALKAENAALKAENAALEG
Kind of assay: two-hybrid library CCmax. Conditions: mean of both orientations.

Another assay concerns the target T30, 4H3133-AA.
T30 chain: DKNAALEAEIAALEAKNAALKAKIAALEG
Kind of assay: two-hybrid library CCmax. Conditions: mean of both orientations.

The next assay deals with T31, 4H2648-AA.
T31 chain: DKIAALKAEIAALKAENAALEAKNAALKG
Description: two-hybrid library CCmax. Conditions: mean of both orientations.

A further assay concerns the target T32, 4H32-AA.
T32 chain: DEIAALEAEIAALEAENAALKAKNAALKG
Kind of assay: two-hybrid library CCmax. Conditions: mean of both orientations.

For a further assay, the target named is T33, 4H2620-AA.
T33 chain: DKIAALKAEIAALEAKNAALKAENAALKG
Kind of assay: two-hybrid library CCmax. Conditions: mean of both orientations.

In another assay the target is T34, 4H3697-AA.
T34 chain: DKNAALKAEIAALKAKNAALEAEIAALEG
Kind of assay: two-hybrid library CCmax. Conditions: mean of both orientations.

For the next assay, the target named is T35, 4H2198-AA.
T35 chain: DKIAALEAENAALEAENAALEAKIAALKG
Description: two-hybrid library CCmax. Conditions: mean of both orientations.

With DKIAQLKQKIAELEQKIAELKWENAQLEQ [4H2859-bA], the interaction score is -0.389 with 4H3297-bA; 0.529 with 4H56-bA; -0.912 in the assay with 4H932-bA; -0.855 with 4H796-bA; -1.02 with 4H3381-bA; 0.621 with 4H3364-bA. Also, the interaction score in the assay with 4H2859-bA is 0.951; with 4H2931-bA, -0.145; in the assay with 4H730-bA, -1.15; in the assay with 4H349-bA it was -1.25; with 4H949-bA, -1.6; with 4H3041-bA it was 0.532.

Turning to DENAALKAKIAALKAENAALEAEIAALKG [4H1874-AA], the interaction score in the assay with 4H3718-AA is -1.5; in the assay with 4H3056-AA it was -0.229; with 4H3606-AA, 2.08; with 4H384-AA, -0.973; in the assay with 4H3413-AA, -1.35; with 4H3378-AA it was -0.221. Also, the interaction score in the assay with 4H1874-AA is 1.18; with 4H982-AA, -1.36; with 4H2553-AA it was -1.21; with 4H697-AA it was 1.47; in the assay with 4H340-AA, -1.94; in the assay with 4H3162-AA, 1.38. Further, the interaction score with 4H3588-AA was -1.22; with 4H3865-AA, 1.13; with 4H2611-AA it was -1.33; with 4H3631-AA, -1.14; with 4H2907-AA it was -1.61; with 4H3133-AA it was 1.46. The interaction score was -1.44 with 4H2648-AA; 1.23 with 4H32-AA; 1.59 with 4H2620-AA; -0.269 with 4H3697-AA; -1.15 with 4H2198-AA.
